According to patent EP4631959A2, “NOVEL MINIGASTRIN-DERIVED CHOLECYSTOKININ 2 RECEPTOR BINDING MOLECULES FOR IMAGING AND TARGETED RADIOTHERAPY” (priority 2022, dated 2024):
Read-outs that look alike come from different tables or passages of the source. Starred links: 1 amine or outer side, 2 acyl side, 3 side chain; linkers in the order of their positions; H or OH if unused. Non-standard residues stand in square brackets, D forms with d. Residues, ends and D or L forms follow the SMILES beside them. *: point of attachment. Benzoyl(4-SiFtBu2) = CC(C)(C)[Si](F)(c1ccc(C(=O)*)cc1)C(C)(C)C; DOTA = O=C(O)CN1CCN(CC(=O)O)CCN(CC(=O)*)CCN(CC(=O)O)CC1; PEG12 = NCCOCCOCCOCCOCCOCCOCCOCCOCCOCCOCCOCCOCCC(=O)O; d(γGlu) = O=C(O)[C@@H](CCC(=O)[*:2])N[*:1]; PEG8 = NCCOCCOCCOCCOCCOCCOCCOCCOCCC(=O)O; 1Nal = N[C@@H](Cc1cccc2ccccc12)C(=O)O; Hyp = O=C(O)[C@@H]1C[C@@H](O)CN1; dCit = NC(=O)NCCC[C@@H](N)C(=O)O; NMeNle = CCCC[C@H](NC)C(=O)O; PEG4 = NCCOCCOCCOCCOCCC(=O)O; dDap = NC[C@@H](N)C(=O)O

What was measured:
CCK-2R = biological target: T1, CCK-2R (Rattus norvegicus, UniProt P30553); experiment: Determination of IC50: CCK-2R affinity on AR4-2J cells, competition with [^177Lu]Lu-DOTA-PP-F11N; format: binding
T1 construct: The CCK-2R expressing rat pancreatic tumor cells AR4-2J; host or cells: AR4-2J rat pancreatic tumor cells
T1 sequence (P30553 1-452): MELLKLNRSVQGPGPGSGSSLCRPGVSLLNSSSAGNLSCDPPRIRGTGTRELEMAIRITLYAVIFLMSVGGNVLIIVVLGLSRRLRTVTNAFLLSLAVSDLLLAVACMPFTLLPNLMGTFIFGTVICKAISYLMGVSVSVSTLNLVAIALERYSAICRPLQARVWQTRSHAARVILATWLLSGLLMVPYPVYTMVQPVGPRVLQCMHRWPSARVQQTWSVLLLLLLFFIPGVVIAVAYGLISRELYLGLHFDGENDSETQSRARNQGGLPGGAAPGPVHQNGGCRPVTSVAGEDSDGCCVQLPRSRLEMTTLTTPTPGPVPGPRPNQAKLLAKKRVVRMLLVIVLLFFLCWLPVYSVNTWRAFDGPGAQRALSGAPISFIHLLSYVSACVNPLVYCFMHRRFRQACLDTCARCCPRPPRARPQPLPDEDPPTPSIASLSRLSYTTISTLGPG
Summary of the method: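 Competitive displacement of 0.3 pmol/well [177Lu]Lu-DOTA-PP-F11N by compounds (10^-10 to 10^-4 M) on AR4-2J cells in BSA-supplemented medium, 3 h at 37 °C. Free label was collected from medium plus PBS rinse, and cell-bound label was recovered with 1 M NaOH, both measured by γ-counter. Each IC50 was determined twice, in triplicate.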

[1] = n-Octanol-PBS distribution coefficient (logD7.4); format: physicochemical; conditions: pH = 7.4, ^177Lu-labeled
Description: Approximately 1 MBq of the labeled tracer was dissolved in 1 mL of a 1/1 mixture (v/v) of phosphate buffered saline (PBS, pH = 7.4) and n-octanol in an Eppendorf tube (1.5 mL). After vigorous mixing of the suspension for 3 min at rt, the vial was centrifuged at 9,000 rpm for 5 min (Biofuge 15, Heraeus Sepatech, Osterode, Germany) and 200 µL aliquots of both layers were measured in a γ-counter. The experiment was repeated at least five times.

[2] = biological target: T2, Human serum albumin (HSA) (Homo sapiens, UniProt P02768); experiment: Determination of HSA binding on a Chiralpak HSA column; format: in vitro ADME; conditions: Tab. 8; metal not stated (Fig. 18: ^natLu)
T2 construct: purchased Daicel, Tokyo, Japan H13H-2433
Description: Human serum albumin (HSA) binding of the CCK-2R-targeted compounds was determined as reported by Valko et al., using a Chiralpak HSA column (50 x 3 mm, 5 µm, H13H-2433, Daicel, Tokyo, Japan) at a constant flow rate of 0.5 mL/min at rt. Therefore, an aq. solution of NH4OAc (pH = 6.9, 50 mM) as mobile phase A and isopropanol as mobile phase B were freshly prepared. In order to calibrate the column prior to the experiments, the retention times of nine reference substances with a HSA binding in the range of 13 to 99% were determined using a gradient of 100% A (0 to 3 min), followed by 80% A (3 to 40 min). Furthermore, all substances tested, were dissolved in a mixture (1/1, v/v) of A and B reaching a final concentration of 0.5 mg/mL. The HSA binding of all rhCCK ligands tested, was determined using the same gradient as for the calibration probes. The non-linear regression of the calibration experiments and the CCK-2R ligands (Fig. 29) was established using the OriginPro 2016G software (Northampton, United States).

[3] = AR4-2J cells; ^natLu-labeled; read-out: IC50 [nM] (n = 3), ^natLu-labeled
[4] = read-out: IC50 [nM] (n = 3), ^natLu-labeled; AR4-2J cells; ^natLu-labeled

T2 sequence (P02768 25-609): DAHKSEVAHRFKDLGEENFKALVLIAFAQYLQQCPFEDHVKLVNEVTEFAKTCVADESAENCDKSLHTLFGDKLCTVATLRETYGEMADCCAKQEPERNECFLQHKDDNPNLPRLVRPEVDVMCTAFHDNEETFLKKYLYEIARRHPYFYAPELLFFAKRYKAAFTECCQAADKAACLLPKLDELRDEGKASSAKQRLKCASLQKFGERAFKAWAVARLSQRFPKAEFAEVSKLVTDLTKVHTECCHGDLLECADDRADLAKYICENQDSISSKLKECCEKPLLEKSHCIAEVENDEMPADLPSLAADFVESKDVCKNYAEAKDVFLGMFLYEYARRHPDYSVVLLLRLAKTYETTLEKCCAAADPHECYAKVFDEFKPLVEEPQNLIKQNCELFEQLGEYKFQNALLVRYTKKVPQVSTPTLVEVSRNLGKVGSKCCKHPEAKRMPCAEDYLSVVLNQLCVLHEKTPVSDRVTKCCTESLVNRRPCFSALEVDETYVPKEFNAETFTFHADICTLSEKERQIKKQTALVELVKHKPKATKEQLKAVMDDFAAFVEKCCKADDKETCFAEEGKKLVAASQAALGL

Compound	IC50 (CCK-2R; [3])	logD7.4 (n ≥ 5), ^177Lu-labeled [1]	HSA binding [%] [2]	logD7.4 (n ≥ 5), ^177Lu-labeled ([1]; listed as [^nat/177Lu]Lu-DOTA-rhCCK-75)	logD7.4 (n ≥ 5), ^177Lu-labeled ([1]; listed as [^nat/177Lu]Lu-DOTA-rhCCK-76)	IC50 (CCK-2R; [4])
CCCC[C@@H](C(=O)N[C@@H](CC(=O)O)C(=O)N[C@@H](Cc1cccc2ccccc12)C(N)=O)N(C)C(=O)[C@H](Cc1c[nH]c2ccccc12)NC(=O)CCOCCOCCOCCOCCNC(=O)CC[C@@H](NC(=O)CCOCCOCCOCCOCCOCCOCCOCCOCCNC(=O)CC[C@@H](NC(=O)[C@@H](CNC(=O)C[N+](C)(C)Cc1ccc([Si](F)(C(C)(C)C)C(C)(C)C)cc1)NC(=O)CN1CCN(CC(=O)O)CCN(CC(=O)O)CCN(CC(=O)O)CC1)C(=O)O)C(=O)O [DOTA-rhCCK-71, DOTA-dap(SiFAlin)-γ-glu-(PEG)7-γ-glu-(PEG)3-Trp-(N-Me)Nle-Asp-1-Nal-NH2]	13.3 ± 1.3 nM	−1.63 ± 0.06	89.1%			
CCCC[C@@H](C(=O)N[C@@H](CC(=O)O)C(=O)N[C@@H](Cc1cccc2ccccc12)C(N)=O)N(C)C(=O)[C@H](Cc1c[nH]c2ccccc12)NC(=O)CCOCCOCCOCCOCCNC(=O)CC[C@@H](NC(=O)CCOCCOCCOCCOCCOCCOCCOCCOCCNC(=O)CC[C@@H](NC(=O)[C@@H](CNC(=O)c1cc(C(=O)O)cc([Si](F)(C(C)(C)C)C(C)(C)C)c1)NC(=O)CN1CCN(CC(=O)O)CCN(CC(=O)O)CCN(CC(=O)O)CC1)C(=O)O)C(=O)O [DOTA-rhCCK-72, DOTA-dap(SiFA-ipa)-γ-glu-(PEG)7-γ-glu-(PEG)3-Trp-(N-Me)Nle-Asp-1-Nal-NH2]	52.3 ± 6.2 nM	−2.32 ± 0.03	89.3%			
CCCC[C@@H](C(=O)N[C@@H](CC(=O)O)C(=O)N[C@@H](Cc1cccc2ccccc12)C(N)=O)N(C)C(=O)[C@H](Cc1c[nH]c2ccccc12)NC(=O)CCOCCOCCOCCOCCNC(=O)CC[C@@H](NC(=O)CCOCCOCCOCCOCCOCCOCCOCCOCCNC(=O)[C@@H](CNC(=O)c1ccc([Si](F)(C(C)(C)C)C(C)(C)C)cc1)NC(=O)CN1CCN(CC(=O)O)CCN(CC(=O)O)CCN(CC(=O)O)CC1)C(=O)O [DOTA-rhCCK-73, DOTA-dap(SiFA)-(PEG)7-γ-glu-(PEG)3-Trp-(N-Me)Nle-Asp-1-Nal-NH2] ({DOTA}-[dDap](Benzoyl(4-SiFtBu2))[PEG8][d(γGlu)][PEG4]W[NMeNle]D[1Nal]-NH2)	15.6 ± 0.7 nM	−1.02 ± 0.06	90.4%			
CCCC[C@@H](C(=O)N[C@@H](CC(=O)O)C(=O)N[C@@H](Cc1cccc2ccccc12)C(N)=O)N(C)C(=O)[C@H](Cc1c[nH]c2ccccc12)NC(=O)CCOCCOCCOCCOCCNC(=O)CC[C@@H](NC(=O)CCOCCOCCOCCOCCOCCOCCOCCOCCOCCOCCOCCOCCNC(=O)[C@@H](CNC(=O)c1ccc([Si](F)(C(C)(C)C)C(C)(C)C)cc1)NC(=O)CN1CCN(CC(=O)O)CCN(CC(=O)O)CCN(CC(=O)O)CC1)C(=O)O [DOTA-rhCCK-74, DOTA-dap(SiFA)-(PEG)11-γ-glu-(PEG)3-Trp-(N-Me)Nle-Asp-1-Nal-NH2] ({DOTA}-[dDap](Benzoyl(4-SiFtBu2))[PEG12][d(γGlu)][PEG4]W[NMeNle]D[1Nal]-NH2)	12.1 ± 1 nM	−1.19 ± 0.07	87.2%			
CCCC[C@@H](C(=O)N[C@@H](CC(=O)O)C(=O)N[C@@H](Cc1cccc2ccccc12)C(N)=O)N(C)C(=O)[C@H](Cc1c[nH]c2ccccc12)NC(=O)CCOCCOCCOCCOCCNC(=O)CC[C@@H](NC(=O)CCOCCOCCOCCOCCOCCOCCOCCOCCOCCOCCOCCOCCNC(=O)CC[C@@H](NC(=O)[C@@H](CNC(=O)C[N+](C)(C)Cc1ccc([Si](F)(C(C)(C)C)C(C)(C)C)cc1)NC(=O)CN1CCN(CC(=O)O)CCN(CC(=O)O)CCN(CC(=O)O)CC1)C(=O)O)C(=O)O [DOTA-rhCCK-75, DOTA-dap(SiFAlin)-γ-glu-(PEG)11-γ-glu-(PEG)3-Trp-(N-Me)Nle-Asp-1-Nal-NH2]	19.2 ± 1.6 nM	−1.15 ± 0.05	90.9%	-1.15 ± 0.05		
CCCC[C@@H](C(=O)N[C@@H](CC(=O)O)C(=O)N[C@@H](Cc1cccc2ccccc12)C(N)=O)N(C)C(=O)[C@H](Cc1c[nH]c2ccccc12)NC(=O)CCOCCOCCOCCOCCNC(=O)CC[C@@H](NC(=O)CCOCCOCCOCCOCCOCCOCCOCCOCCOCCOCCOCCOCCNC(=O)CC[C@@H](NC(=O)[C@@H](CNC(=O)c1ccc([Si](F)(C(C)(C)C)C(C)(C)C)cc1)NC(=O)CN1CCN(CC(=O)O)CCN(CC(=O)O)CCN(CC(=O)O)CC1)C(=O)O)C(=O)O [DOTA-rhCCK-76, DOTA-dap(SiFA)-γ-glu-(PEG)11-γ-glu-(PEG)3-Trp-(N-Me)Nle-Asp-1-Nal-NH2]	14.2 ± 0.9 nM	−1.82 ± 0.09	86.2%		-1.82 ± 0.09	
CCCC[C@@H](C(=O)N[C@@H](CC(=O)O)C(=O)N[C@@H](Cc1cccc2ccccc12)C(N)=O)N(C)C(=O)[C@H](Cc1c[nH]c2ccccc12)NC(=O)CCOCCOCCOCCOCCNC(=O)CC[C@@H](NC(=O)[C@@H]1C[C@@H](O)CN1C(=O)[C@@H]1C[C@@H](O)CN1C(=O)[C@@H]1C[C@@H](O)CN1C(=O)CC[C@@H](NC(=O)[C@@H](CNC(=O)c1ccc([Si](F)(C(C)(C)C)C(C)(C)C)cc1)NC(=O)CN1CCN(CC(=O)O)CCN(CC(=O)O)CCN(CC(=O)O)CC1)C(=O)O)C(=O)O [DOTA-rhCCK-83, DOTA-dap(SiFA)-γ-glu-(Hyp)3-γ-glu-(PEG)3-Trp-(N-Me)Nle-Asp-1-Nal-NH2] ({DOTA}-[dDap](Benzoyl(4-SiFtBu2))[d(γGlu)][Hyp][Hyp][Hyp][d(γGlu)][PEG4]W[NMeNle]D[1Nal]-NH2)		−1.50 ± 0.05	93.4%			10 ± 0.9 nM
CCCC[C@@H](C(=O)N[C@@H](CC(=O)O)C(=O)N[C@@H](Cc1cccc2ccccc12)C(N)=O)N(C)C(=O)[C@H](Cc1c[nH]c2ccccc12)NC(=O)CCOCCOCCOCCOCCNC(=O)CC[C@@H](NC(=O)[C@@H]1C[C@@H](O)CN1C(=O)[C@@H]1C[C@@H](O)CN1C(=O)[C@@H]1C[C@@H](O)CN1C(=O)[C@@H](CCCNC(N)=O)NC(=O)[C@@H](CCCNC(N)=O)NC(=O)[C@@H](CCCNC(N)=O)NC(=O)CC[C@@H](NC(=O)[C@@H](CNC(=O)c1ccc([Si](F)(C(C)(C)C)C(C)(C)C)cc1)NC(=O)CN1CCN(CC(=O)O)CCN(CC(=O)O)CCN(CC(=O)O)CC1)C(=O)O)C(=O)O [DOTA-rhCCK-85, DOTA-dap(SiFA)-γ-glu-(cit)3-(Hyp)3-γ-glu-(PEG)3-Trp-(N-Me)Nle-Asp-1-Nal-NH2] ({DOTA}-[dDap](Benzoyl(4-SiFtBu2))[d(γGlu)][dCit][dCit][dCit][Hyp][Hyp][Hyp][d(γGlu)][PEG4]W[NMeNle]D[1Nal]-NH2)		−1.95 ± 0.09	90.3%			12.9 ± 0.3 nM
CCCC[C@@H](C(=O)N[C@@H](CC(=O)O)C(=O)N[C@@H](Cc1cccc2ccccc12)C(N)=O)N(C)C(=O)[C@H](Cc1c[nH]c2ccccc12)NC(=O)CCOCCOCCOCCOCCNC(=O)CC[C@@H](NC(=O)[C@@H]1C[C@@H](O)CN1C(=O)[C@@H]1C[C@@H](O)CN1C(=O)[C@@H]1C[C@@H](O)CN1C(=O)[C@@H]1C[C@@H](O)CN1C(=O)[C@@H]1C[C@@H](O)CN1C(=O)[C@@H]1C[C@@H](O)CN1C(=O)[C@@H]1C[C@@H](O)CN1C(=O)[C@@H]1C[C@@H](O)CN1C(=O)CC[C@@H](NC(=O)[C@@H](CNC(=O)c1ccc([Si](F)(C(C)(C)C)C(C)(C)C)cc1)NC(=O)CN1CCN(CC(=O)O)CCN(CC(=O)O)CCN(CC(=O)O)CC1)C(=O)O)C(=O)O [DOTA-rhCCK-86, DOTA-dap(SiFA)-γ-glu-(Hyp)8-γ-glu-(PEG)3-Trp-(N-Me)Nle-Asp-1-Nal-NH2] ({DOTA}-[dDap](Benzoyl(4-SiFtBu2))[d(γGlu)][Hyp][Hyp][Hyp][Hyp][Hyp][Hyp][Hyp][Hyp][d(γGlu)][PEG4]W[NMeNle]D[1Nal]-NH2)		−1.86 ± 0.06	88.1%			10 ± 1.4 nM
